The target in the assay is T1, HA-PP4c (Mus musculus, UniProt P97470).
T1 construct: expressed in transfected cells; host or cells: NIH3T3 mouse fibroblasts, retroviral pBabe hygro HA-PP4c
T1 sequence (P97470 1-307): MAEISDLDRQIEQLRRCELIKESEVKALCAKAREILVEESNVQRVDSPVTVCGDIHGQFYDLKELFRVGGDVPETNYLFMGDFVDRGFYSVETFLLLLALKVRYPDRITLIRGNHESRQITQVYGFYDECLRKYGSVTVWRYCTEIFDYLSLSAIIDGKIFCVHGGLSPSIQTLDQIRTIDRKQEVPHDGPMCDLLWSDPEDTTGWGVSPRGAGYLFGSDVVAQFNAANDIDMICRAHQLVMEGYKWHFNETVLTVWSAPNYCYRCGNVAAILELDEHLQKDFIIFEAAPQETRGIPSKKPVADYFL
In words: Immunoblotting of anti-HA immunoprecipitates of NIH3T3 cells, PP4c. It counts as binding. The source says: The catalytic subunits of protein phosphatase 4 (PP4c) and 6 (PP6c) are closely related to PP2Ac with approximately 50% sequence identity. PP2Ac, PP4c and PP6c share the C-terminal DYFL or YFL motif, respectively (FIG. 8A). Therefore, a potential cross-reactivity of 7C10-C5 with α-carboxymethylated PP4c and/or PP6c was examined and compared to another anti-carboxymethyl-PP2Ac antibody 2A10. 2A10 is a carboxymethyl-PP2Ac specific antibody that has been raised against a larger C-terminal PP2Ac peptide (amino acids 302-309, carboxymethylated Leu^309) and that has been shown before to cross-react with α-carboxymethylated PP4c (Lee (2014), Biochem Biophys Res Commun 452, 42-47). HA tagged human PP2Ac a, mouse HA PP4c or mouse HA PP6c from NIH3T3 mouse fibroblasts stably expressing these HA-tagged proteins were immunoprecipitated. The precipitated proteins were then analyzed by immunoblotting with anti-carboxymethyl-PP2Ac antibodies 7C10-C5 or 2A10.
Specifically, 500 μl corresponding to 1 mg of whole cell protein lysates of NIH3T3 mouse fibroblasts were incubated with anti-hemagglutinin (HA) antibody (clone 12CA5) crosslinked to BSA-coated protein A-Sepharose beads (GE-Healthcare) to immunoprecipitate HA-epitope tagged PP2Ac, PP4c or PP6c for 1 h. […]
For orientation: Immunoblotting shows a protein as a band on a membrane.

B1: 7C10-C5: α-carboxymethylation specific mouse monoclonal IgG1 antibody from single clone hybridoma 7C10-C5 (DSM ACC3350) (antibody)
heavy: MYRMQLLSCIALSLALVTNSDVQLQESGPGLVKPSQSLSLTCSVTGYSITSGYYWNWIRQFPGNKLEWMGYISYDGSNNYNPSLKNRISITRDTSKNQFFLKLNSVTTEDTATYYCAGRFAYWGQGTLVTVSAAKTTAPSVYPLAPVCGDTTGSSVTLGCLVKGYFPEPVTLTWNSGSLSSGVHTFPAVLQSDLYTLSSSVTVTSSTWPSQSITCNVAHPASSTKVDKKIEPRGPTIKPCPPCKCPAPNLLGGPSVFIFPPKIKDVLMISLSPIVTCVVVDVSEDDPDVQISWFVNNVEVHTAQTQTHREDYNSTLRVVSALPIQHQDWMSGKEFKCKVNNKDLPAPIERTISKPKGSVRAPQVYVLPPPEEEMTKKQVTLTCMVTDFMPEDIYVEWTNNGKTELNYKNTEPVLDSDGSYFMYSKLRVEKKNWVERNSYSCSVVHEGLHNHHTTKSFSRTPGK
light: MDMRVPAQLLGLLLLWLSGARCDVLMTQTPLSLPVSLGDQASISCRSSQSIVHSNGNTYLEWYLQKPGQSPKLLIYKVSNRFSGVPDRFSGSGSGTDFTLKINRVEAEDLGVYYCFQGSHVPWTFGGGTKLEIKADAAPTVSIFPPSSEQLTSGGASVVCFLNNFYPKDINVKWKIDGSERQNGVLNSWTDQDSKDSTYSMSSTLTLTKDEYERHNSYTCEATHKTSTSPIVKSFNRNEC
modifications: Amino acid sequence of the recombinant 7C10-C5 heavy chain; Amino acid sequence of the recombinant 7C10-C5 light chain
Take B1: the “detection of PP4c” value (Western blot of HA immunoprecipitates) was “did not detect”. The “binding to carboxymethylated PP2Ac stronger than to carboxymethylated PP4c” value (Western blot, suggested since no discernable signal) is on record as 100-fold or even 500-fold.
